The nature of the series: yeast display, Sf9 membrane polyspecificity reagent, FACS + sequencing; frameworks hold sequencing errors. In a few lines:
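Galactose-induced (36–48 hours) yeast carrying a synthetic nanobody display library were exposed to 10% biotinylated, detergent-solubilized Sf9 membrane reagent at 4 °C for 1 hour. FACS followed streptavidin microbead enrichment, using low and high (top ~1%) gates for expression (anti-HA) and reagent binding (streptavidin). Colony PCR, MiSeq 2 × 250 sequencing and CDR-length filtering followed. Labels for polyreactivity reflect the gate of origin.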
Take “QVQLVESGGGLVQAGGSLRLSCAASGRTFYKYVMGWYRQAPGKERELVAAITRSGGGTYYADSVKGRFTISRDNAKNTVYLQMNSLKPEDTAVYYCAVSGRSYYRSDYWGQGTQVTVSS”: the “polyreactivity (PSR sort gate)” value is reported as “high polyreactivity”. “QVQLVESGGGLVQAGGSLRLSCAASGRTFYLYAMGWYRQAPGKEREFVAAISWSTGSTYYADSVKGRFTISRDNAKNTVYLQMNSLKPEDTAVYYCAASTFTGYPKMYYWGQGTQVTVSS”: the “polyreactivity (PSR sort gate)” value is “high polyreactivity”. Take “QVQLVESGGGLVQAGGSLRLSCAASGRTFYLYAMGWYRQAPGKERELVAAITFNGGSTYYADSVKGRFTISRDNAKNTVYLQMNSLKPEDTAVYYCAARLSKRSGYYYWGQGTQVTVSS”: the “polyreactivity (PSR sort gate)” value is recorded as “high polyreactivity”. As for “QVQLVESGGGLVQAGGSLRLSCAASGRTFYNNAMGWDRQAPGKERELVATINNRGGPTYYADSVKGRFTISRDNAQNTVYFQMNSLKPEDTAVYYCAASGWHGYNYWGQGTQVTVSS”, the entry is “high polyreactivity”; as for “QVQLVESGGGLVQAGGSLRLSCAASGRTFYPNAMGWYRQAPGKERELVAAITTDGSTYYADSVKGRFTISRDNAKNTVYLQMNSLKPEDTAVYYCAARGFWWPYTYYYWGHGTQVTVSS”, “high polyreactivity”. As to “QVQLVESGGGLVQAGGSLRLSCAASGRTFYPNAMGWYRQAPGKERELVAAITWRSGSTYYADSVKGRFTISRDNAKNTVYLQMNSLKPEDTAVYYCNADSDYPYYPGKFDYWGQGTQVTVSS”, the “polyreactivity (PSR sort gate)” value is given as “low polyreactivity”. In the case of “QVQLVESGGGLVQAGGSLRLSCAASGRTFYPNTMGWYRQAPGKERELVATITRSGGTTYADSVKGRFTISRDNAKNTVYLQMHSLKPEDTAVYYCNADQRRYYWLVSQRYDYWGQGTQVTVSS” it was “low polyreactivity”; in that of “QVQLVESGGGLVQAGGSLRLSCAASGRTFYPYAMGWYRQAPGKERELVAAINRRGGSTYYADSVKGRFTISRDNAKNTVYLQMNSLKPEDTAVYYCAAKTTTPYRYIYYYWGQGTQVTVSS”, “high polyreactivity”.

Turning to “QVQLVESGGGLVQAGGSLRLSCAASGRTFYPYAMGWYRQAPGKERELVAAITWSGGSTYYADSVKGRFTISRDNAKNTVYLQMNSLKPEDTAVYYCNATYEASFYYEYDYWGQGTQVTVSS”, the “polyreactivity (PSR sort gate)” value is recorded as “low polyreactivity”. In the case of “QVQLVESGGGLVQAGGSLRLSCAASGRTFYRNAMGWSRQAPGKEREFVAVISVSGGSTYYADSVKGRFTISRDNAKNTVYLQMISLKPEDTAVYYCAKRGPVRQTANDYWGPGTQVTVSS” it was “low polyreactivity”. In the case of “QVQLVESGGGLVQAGGSLRLSCAASGRTFYRNAMGWYRQAPGKEREFVASIDWSGGSTYYADSVKGRFTISRDNAKNTVYLQMNSLKPEDTAVYYCAAELDYFPGYDYWGQGTQVTVSS” it was “low polyreactivity”.

On to “QVQLVESGGGLVQAGGSLRLSCAASGRTFYRNAMGWYRQAPGKERELVAAITWSGVSTYYADSVKGRFTISRDNAKNTVYVQMNSQKPEDTAVYYCARGRVLRNGHYFQLRNYDYWGQGTQVTVSS”, for which the “polyreactivity (PSR sort gate)” value was “high polyreactivity”. Consider “QVQLVESGGGLVQAGGSLRLSCAASGRTFYRNAMGWYRQAPGKERELVASIRRNGGSTYYADSVKGRFTISRDNAKNTVYLQMNSLKPEDTAVYYCAAKFYWRGQSFRSGNFYWGQGTQVTVSS”, for which the “polyreactivity (PSR sort gate)” value was “high polyreactivity”. With “QVQLVESGGGLVQAGGSLRLSCAASGRTFYRNVMGWYRQEPGKEREMVASIRTSGGSTYYADSVKGRFTISRDNAKNTVYLQMNSQKPEDTAVYYCATRVFVYPYRRYSHYDYWGLGTQVTVSS”, the “polyreactivity (PSR sort gate)” value is “high polyreactivity”. In the case of “QVQLVESGGGLVQAGGSLRLSCAASGRTFYRYAMGWYRQAAGTERELVAAISRSGGSTYYADSVKGRFTISRDHAKYTVYLQMNSLKPQDTAVYYCAAGYDGYKQGGGGYWGQGTQVTVSS” it was “high polyreactivity”; in that of “QVQLVESGGGLVQAGGSLRLSCAASGRTFYRYAMGWYRQAPGKEREFVAAISGSGGRTYYADSVKGRFTISRDNAKNTVYLQMNSLKPEDTAVYYCNAYPHAYTGSTREGDYWGQGTQVTVSS”, “high polyreactivity”; in that of “QVQLVESGGGLVQAGGSLRLSCAASGRTFYRYAMGWYRQAPGKEREFVATISRSGGSTFYADSVKGRFTISRDNAKNTVYLQMNSLKPEDTAVYYWAAVGWYPYQMVYWGQGTQVTVSS”, “high polyreactivity”. Take “QVQLVESGGGLVQAGGSLRLSCAASGRTFYRYAMGWYRQAPGKERELVAAIRWSGGSTYYADSVKGRFTISRDNAKNTVYLQMNSLKPEDTAVYYCAARAIQLVDGRYKVRMDYWGQGTQVTVSS”: the “polyreactivity (PSR sort gate)” value is reported as “low polyreactivity”. In the case of “QVQLVESGGGLVQAGGSLRLSCAASGRTFYRYVMGWYRQAPGKERELVAAIRSSGTSTYYADSVKGRFTISRDNAKNTVYLQMNSLKPEDTAVYYCARDSYRGYVYSLDYWGQGTQVTVSS” it was “high polyreactivity”; in that of “QVQLVESGGGLVQAGGSLRLSCAASGRTFYSNAMGWYRQAPGKERELVAAITFGGGSTYYADSVKGRFTISRDNAKNTVYVQMNSLKPEDTAVYYCAAEGYKYRFYYWGQGTQVTVSS”, “low polyreactivity”; in that of “QVQLVESGGGLVQAGGSLRLSCAASGRTFYSNAMGWYRQAPGKERELVASISYGGGTTHYADSVKGRFTISRDNAKNTVYLQINSVKPEDTAVYYCAADPEHQWESVTIGEYDYWGQGTQVTVSS”, “low polyreactivity”. For the sequence “QVQLVESGGGLVQAGGSLRLSCAASGRTFYSNAMGWYRQAPGKERELVATISSGGSTNYADSVKGRFTISRDNAKNTVYLQMNSLKPEDTAVYYCATRPDRINDYWGQGTQVTVSS”, the “polyreactivity (PSR sort gate)” value is “low polyreactivity”. Consider “QVQLVESGGGLVQAGGSLRLSCAASGRTFYSNVMGWYRQAPGKERELVAAISSSTYYADSVKGRFTISRDNANNTVYLQMNSLKPEDTAVYYCAAYSRYYPYYRYGYLGQGTQVTVSS”, for which the “polyreactivity (PSR sort gate)” value is “high polyreactivity”. Consider “QVQLVESGGGLVQAGGSLRLSCAASGRTFYSYAIGWYREAPGKERELVASISSGGGTNYADSVKGRFTISRDNAKNTVYLQMNSLKPDDTAVYYCAAKYWIFYPYDYWGQGTQVTVSS”, for which the “polyreactivity (PSR sort gate)” value was “low polyreactivity”. As for “QVQLVESGGGLVQAGGSLRLSCAASGRTFYSYAMGWSRQAPGKERELVAAISRAGGTYYADSVKGRFTLSRDNAKNTVYLQMNSLKPEDTAVYYCAARQAVYGLRSDFYYWGQGTQVTVSS”, the entry is “high polyreactivity”. Consider “QVQLVESGGGLVQAGGSLRLSCAASGRTFYSYAMGWYRKAPGKERELVAAISASGGRTYYADSVKGRFTISRDNAKNTVYLQMNSLKPEDTAVYYCAAYPWYRMWGQGTQVTVSS”, for which the “polyreactivity (PSR sort gate)” value is recorded as “high polyreactivity”.

“QVQLVESGGGLVQAGGSLRLSCAASGRTFYSYAMGWYRQAPGKERELVAAISFRDGRTYYADSVKGRFTISRDNAKNTVYLQMNSLKPEDTAVYYCAAQLSHYYSLYYYWGQGTQVTVSS”: the “polyreactivity (PSR sort gate)” value is recorded as “high polyreactivity”. As for “QVQLVESGGGLVQAGGSLRLSCAASGRTFYSYAMGWYRQAPGKERELVAAISRSGNTYYADSVKGRFTISRDNAKNTVYLQMNSLKPEDTAVYYCAAYYWWGYPENDYWGQGTQVTVSS”, the entry is “high polyreactivity”. In the case of “QVQLVESGGGLVQAGGSLRLSCAASGRTFYSYVMGWSRQAPGKERELVAAISQSGGNTYYADSVKGRFTISRDNAKNTVYLQMNSLKPEDTAVYYCAAGGVLTSWFGQEYEYYYWGQGTQVTVSS” it was “high polyreactivity”. As for “QVQLVESGGGLVQAGGSLRLSCAASGRTFYTNAMGCYRQAPGKERELVARIRRGGTTNYADSVKGRFTISRDNAKNTVYLQMNSLKPEDTAVYYCSYSYGYWGQGTQVTVSS”, the “polyreactivity (PSR sort gate)” value is “high polyreactivity”.

As for “QVQLVESGGGLVQAGGSLRLSCAASGRTFYTNVMGWYRQAPGKERELVAAITTSSSRTYYADSVKGRFTISRDNAKNTVYLQMNSLKPEDTAVYYCAARIHGSWSFDYWGQGTQVTVSS”, the “polyreactivity (PSR sort gate)” value is recorded as “low polyreactivity”. As for “QVQLVESGGGLVQAGGSLRLSCAASGRTFYTYGMGWYRQAPGKERELVAAITETGDSTYYADSVKGRFTISRDNAKNTVYLQMNSLKPEDTAVYYCAADYRAPLDYWGQGTQVTVSS”, the “polyreactivity (PSR sort gate)” value is listed as “low polyreactivity”. In the case of “QVQLVESGGGLVQAGGSLRLSCAASGRTFYVNAMGWYRQAHGKERELVASITSGGSTYYADSVKGRFTISRDNAKNTVYLQMNSLKPEDTAVYYCAARWVQRLRHYIFYYWGQGTQGTVSS” it was “high polyreactivity”.

Take “QVQLVESGGGLVQAGGSLRLSCAASGRTFYVNAMGWYRQAPGKERELVATITDRGGRTYYADSVKGRFTISRDNAKNTVYLQMNSLKPEDTAVYYCAATRWYEVDYWGQGTQVTVSS”: the “polyreactivity (PSR sort gate)” value is “low polyreactivity”.

On to “QVQLVESGGGLVQAGGSLRLSCAASGRTFYVNTMGWYRQAHGKEKDLVARITRGGSTYYADSVKGRFTISRDNAKNTVYLQMNSLKPEDTAVYYCATDHFPVYSTHVIYEFDYWGQGTQVTVSS”, for which the “polyreactivity (PSR sort gate)” value was “low polyreactivity”. Turning to “QVQLVESGGGLVQAGGSLRLSCAASGRTFYVNTMRWYRQAPGKEREFVARITRGGSTYYADSVKGRFTISRDNAMNTVYLEMNSLKPEDTAFYYCGTDHFPVYSTHVIYEFDYWGQGTQVTVSS”, the “polyreactivity (PSR sort gate)” value is recorded as “low polyreactivity”.

As for “QVQLVESGGGLVQAGGSLRLSCAASGRTFYWNAMGWYRQAPGKERELVAAITRNGGSTYYADSVKGRFTISRDNAKNNVYLQMNSLKPEDTAVYYCAARKRYGAGYDYWGQGTQVTVSS”, the “polyreactivity (PSR sort gate)” value is “high polyreactivity”. As for “QVQLVESGGGLVQAGGSLRLSCAASGRTFYWNAMGWYRQAPGKERELVAGISRGGGITYYADSVKGRFTISRDNAKYTVYLQMNSLKPEDTAVYYCNSRAGRQLARYGYWGQGTQVTVSS”, the entry is “high polyreactivity”; as for “QVQLVESGGGLVQAGGSLRLSCAASGRTFYWNAMGWYRQAPGKERELVASINGGGSTYYADSVKGRFTISRDNAKNTVYLKMNSLKPEDTAVYYCNTSYIIWYDSWGQGTQVTVSS”, “low polyreactivity”; as for “QVQLVESGGGLVQAGGSLRLSCAASGRTFYWYAMGWYRQAPGKERELVAAITSGGSTNYADSVKGRFTISRDNAKNTVYLQMNSLKPEDTAVYYCAARRSVRRGGDYYWGQGTQVTVSS”, “high polyreactivity”. As for “QVQLVESGGGLVQAGGSLRLSCAASGRTFYWYTMGWYRQAPGKERELVAAISIGGITSYADSVKGRFTISRDNAKNTVYLQMNSLKPEDTAVYYCAAESACSRPYFNSIHRRDSWGQGTQVTVSS”, the entry is “low polyreactivity”.

Values taken from the nanobody polyreactivity screen of Harvey et al. (2022).
